B1: HDV Ribozyme (parent)
chain: GGCCGGCAUGGUCCCAGCCUCCUCGCUGGCGCCGGCUGGGCAACAUUCCGAGGGGACCGUCCCCUCGGUAAUGGCGAAUGGGACCCA

Variants of: B1
Assay: self-cleavage, relative activity (ratio to wild type); higher = more cleavage; co-transcriptional
GGCCGGCAUGGUCCCAGCCUCCUCGCUGGCGCCGGCUGGGCAACAUACCGAGGGGACCGUCCCCUCGGCAAUGGCGAAUGGGACCCA gave a self-cleavage of 0.764. GGCCGGCAUGGUCCCAGCCUCCUCGCUGGCGCCGGCUGGGCAACAUACCGAGGUGACCGUCCCCUCGGUAAUGGCGAAUGGGACCCA gave a self-cleavage of 0.91. Variant GGCCGGCAUGGUCCCAGCCUCCUCGCUGGCGCCGGCUGGGCAACAUACCGAGGGGACCGUCCCCUCAGUAAUGGCGAAUGGGACCCA has a self-cleavage of 0.897. With GGCCGGCAUGGUCCCAGCCUCCUCGCUGGCGCCGGCUGGGCAACAUACCGAGGGGACCGUCCCCUCUGUAAUGGCGAAUGGGACCCA the self-cleavage was 1.14. Work on GGCCGGCAUGGUCCCAGCCUCCUCGCUGGCGCCGGCUGGGCAACAUACCGAGGGGACCGUCCCGUCGGUAAUGGCGAAUGGGACCCA yielded a self-cleavage of 0.978. For GGCCGGCAUGGUCCCAGCCUCCUCGCUGGCGCCGGCUGGGCAACAUACCGAGGGGACCGUCCCAUCGGUAAUGGCGAAUGGGACCCA, the self-cleavage was 1.08. In the case of GGCCGGCAUGGUCCCAGCCUCCUCGCUGGCGCCGGCUGGGCAACAUCCCGAGGGGAUCGUCCCCUCGGUAAUGGCGAAUGGGACCCA, the self-cleavage is reported as 0.712. Variant GGCCGGCAUGGUCCCAGCCUCCUCGCUGGCGCCGGCUGGGCAACAUACCAAGGGGACCGUCCCCUCGGUAAUGGCGAAUGGGACCCA has a self-cleavage of 0.876. Work on GGCCGGCAUGGUCCCAGCCUCCUCGCUGGCGCCGGCUGGGCAACAUACCGAGGGGACCGUCCCCUCGGUAAUGGCGAAGGGGACCCA yielded a self-cleavage of 0.895. With GGCCGGCAUGGUCCCAGCCUCCUCGCUGGCGCCGGCUGGGCAACAUCCCGAGGGGCCCGUCCCCUCGGUAAUGGCGAAUGGGACCCA the self-cleavage was 0.831. In the case of GGCCGGCAUGGUCCCAGCCUCCUCGCUGGCGCCGGCUGGGCAACAUCCCGAGGGGUCCGUCCCCUCGGUAAUGGCGAAUGGGACCCA, the self-cleavage is reported as 0.942. With GGCCGGCAUGGUCCCAGCCUCCUCGCUGGCGCCGGCUGGGCAACAUACCGAGGGGACCGUCCCCUCGGUAAUGGCGAAUGGGACUCA the self-cleavage was 1.03. Variant GGCCGGCAUGGUCCCAGCCUCCUCGCUGGCGCCGGCUGGGCAACAUAGCGAGGGGACCGUCCCCUCGGUAAUGGCGAAUGGGACCCA has a self-cleavage of 0.598. Variant GGCCGGCAUGGUCCCAGCCUCCUCGCUGGCGCCGGCUGGGCAACAUACCGAGGGGACCGUCCCCUCGGUAAUGGCGAAUGGCACCCA has a self-cleavage of 0.489. Variant GGCCGGCAUGGUCCCAGCCUCCUCGCUGGCGCCGGCUGGGCAACAUACCGAGGGUACCGUCCCCUCGGUAAUGGCGAAUGGGACCCA has a self-cleavage of 1.01. GGCCGGCAUGGUCCCAGCCUCCUCGCUGGCGCCGGCUGGGCAACAUACCGAGGGAACCGUCCCCUCGGUAAUGGCGAAUGGGACCCA showed a self-cleavage of 0.927. In the case of GGCCGGCAUGGUCCCAGCCUCCUCGCUGGCGCCGGCUGGGCAACAUCCCGAGGGGACCGUCCCCUCGGUAAUGGCGAAUGGGACCCU, the self-cleavage is reported as 0.746. Work on GGCCGGCAUGGUCCCAGCCUCCUCGCUGGCGCCGGCUGGGCAACAUCCCGAGGGGACCGUCCCCUCGGUAAUGGCGAAUGGGACCCC yielded a self-cleavage of 0.95. GGCCGGCAUGGUCCCAGCCUCCUCGCUGGCGCCGGCUGGGCAACAUCCCGAGGGGACCGUCCCCUCGGUAAUGGCGAAUGGGACCCG gave a self-cleavage of 0.876. For GGCCGGCAUGGUCCCAGCCUCCUCGCUGGCGCCGGCUGGGCAACAUACCGAGGGGACCGUCCCCUCGGUAAUGGCGAAUCGGACCCA, the self-cleavage was 0.138. For GGCCGGCAUGGUCCCAGCCUCCUCGCUGGCGCCGGCUGGGCAACAUACCGAGGGGACCGUCCCCUCGGUAAUGGCGAAUUGGACCCA, the self-cleavage was 0.172. GGCCGGCAUGGUCCCAGCCUCCUCGCUGGCGCCGGCUGGGCAACAUACCGAGGGGACCGUCCCCUCGGUAAUGGCGAAUGGGUCCCA showed a self-cleavage of 0.287. With GGCCGGCAUGGUCCCAGCCUCCUCGCUGGCGCCGGCUGGGCAACAUACCGAGGGGACCGUCCCCUCGGUAAUGGCGAAUGGGCCCCA the self-cleavage was 0.391. For GGCCGGCAUGGUCCCAGCCUCCUCGCUGGCGCCGGCUGGGCAACAUACCGAGGGGACCGUCCCCUCGGUAAUGGCGAAUGGGACCCG, the self-cleavage was 0.96. Work on GGCCGGCAUGGUCCCAGCCUCCUCGCUGGCGCCGGCUGGGCAACAUACCGAGGGGACCGUCCCCUCGGUAAUGGCGAAUGGGACCCC yielded a self-cleavage of 0.95. In the case of GGCCGGCAUGGUCCCAGCCUCCUCGCUGGCGCCGGCUGGGCAACAUACCGAGGGGACCGUCCCCUCGGUAAUGGCGAAUGGGACCCU, the self-cleavage is reported as 1.03. Work on GGCCGGCAUGGUCCCAGCCUCCUCGCUGGCGCCGGCUGGGCAACAUACCGAGGGGACCGUCCCCUCGGUAAUGGCGACUGGGACCCA yielded a self-cleavage of 0.147. With GGCCGGCAUGGUCCCAGCCUCCUCGCUGGCGCCGGCUGGGCAACAUACCGAGGGGACCGUCACCUCGGUAAUGGCGAAUGGGACCCA the self-cleavage was 1.01. With GGCCGGCAUGGUCCCAGCCUCCUCGCUGGCGCCGGCUGGGCAACAUCCCGCGGGGACCGUCCCCUCGGUAAUGGCGAAUGGGACCCA the self-cleavage was 0.776. For GGCCGGCAUGGUCCCAGCCUCCUCGCUGGCGCCGGCUGGGCAACAUCCCGUGGGGACCGUCCCCUCGGUAAUGGCGAAUGGGACCCA, the self-cleavage was 0.831. In the case of GGCCGGCAUGGUCCCAGCCUCCUCGCUGGCGCCGGCUGGGCAACAUCCCGAGGGGACUGUCCCCUCGGUAAUGGCGAAUGGGACCCA, the self-cleavage is reported as 0.752. In the case of GGCCGGCAUGGUCCCAGCCUCCUCGCUGGCGCCGGCUGGGCAACAUCCCGAGGGGACGGUCCCCUCGGUAAUGGCGAAUGGGACCCA, the self-cleavage is reported as 0.807. Variant GGCCGGCAUGGUCCCAGCCUCCUCGCUGGCGCCGGCUGGGCAACAUCCCGAGGGGACAGUCCCCUCGGUAAUGGCGAAUGGGACCCA has a self-cleavage of 0.779. Work on GGCCGGCAUGGUCCCAGCCUCCUCGCUGGCGCCGGCUGGGCAACAUACCGAGGGGACCAUCCCCUCGGUAAUGGCGAAUGGGACCCA yielded a self-cleavage of 0.746. For GGCCGGCAUGGUCCCAGCCUCCUCGCUGGCGCCGGCUGGGCAACAUACCGAGGGGACCGUCCCCUCGGUAAUGUCGAAUGGGACCCA, the self-cleavage was 0.447. Work on GGCCGGCAUGGUCCCAGCCUCCUCGCUGGCGCCGGCUGGGCAACAUACCGAGGGGACCGUCCCCUCGGUAAUGACGAAUGGGACCCA yielded a self-cleavage of 0.688. GGCCGGCAUGGUCCCAGCCUCCUCGCUGGCGCCGGCUGGGCAACAUCCCGAGGGGACCGUCCCCUCGGUAAUGGCGUAUGGGACCCA showed a self-cleavage of 0.285. For GGCCGGCAUGGUCCCAGCCUCCUCGCUGGCGCCGGCUGGGCAACAUCCUGAGGGGACCGUCCCCUCGGUAAUGGCGAAUGGGACCCA, the self-cleavage was 0.864. GGCCGGCAUGGUCCCAGCCUCCUCGCUGGCGCCGGCUGGGCAACAUCCGGAGGGGACCGUCCCCUCGGUAAUGGCGAAUGGGACCCA showed a self-cleavage of 0.978. Work on GGCCGGCAUGGUCCCAGCCUCCUCGCUGGCGCCGGCUGGGCAACAUCCCGAGGGGACCGUCCCCUCGGUAAUGGCGACUGGGACCCA yielded a self-cleavage of 0.0898. With GGCCGGCAUGGUCCCAGCCUCCUCGCUGGCGCCGGCUGGGCAACAUCCCGAGGGGACCGUCCCCUCGGUAAUGGCGAGUGGGACCCA the self-cleavage was 0.807. GGCCGGCAUGGUCCCAGCCUCCUCGCUGGCGCCGGCUGGGCAACAUACCGAGGGGACCGUCCCCUAGGUAAUGGCGAAUGGGACCCA gave a self-cleavage of 0.847. GGCCGGCAUGGUCCCAGCCUCCUCGCUGGCGCCGGCUGGGCAACAUACCGAGGGGACCGUCCCCUGGGUAAUGGCGAAUGGGACCCA showed a self-cleavage of 0.982. Work on GGCCGGCAUGGUCCCAGCCUCCUCGCUGGCGCCGGCUGGGCAACAUACCGAGGGGACAGUCCCCUCGGUAAUGGCGAAUGGGACCCA yielded a self-cleavage of 0.957. GGCCGGCAUGGUCCCAGCCUCCUCGCUGGCGCCGGCUGGGCAACAUACCGAGGGGACUGUCCCCUCGGUAAUGGCGAAUGGGACCCA showed a self-cleavage of 1.03. Variant GGCCGGCAUGGUCCCAGCCUCCUCGCUGGCGCCGGCUGGGCAACAUACCGAGGGGACGGUCCCCUCGGUAAUGGCGAAUGGGACCCA has a self-cleavage of 0.855. In the case of GGCCGGCAUGGUCCCAGCCUCCUCGCUGGCGCCGGCUGGGCAACAUACCGAGGGGACCGGCCCCUCGGUAAUGGCGAAUGGGACCCA, the self-cleavage is reported as 1.02. For GGCCGGCAUGGUCCCAGCCUCCUCGCUGGCGCCGGCUGGGCAACAUCCCGAGGGGACCGUCCCCUCGGUUAUGGCGAAUGGGACCCA, the self-cleavage was 0.864. In the case of GGCCGGCAUGGUCCCAGCCUCCUCGCUGGCGCCGGCUGGGCAACAUCCCGAGGGGACCGUCCCCUCGGUGAUGGCGAAUGGGACCCA, the self-cleavage is reported as 1.08. Variant GGCCGGCAUGGUCCCAGCCUCCUCGCUGGCGCCGGCUGGGCAACAUACCGAAGGGACCGUCCCCUCGGUAAUGGCGAAUGGGACCCA has a self-cleavage of 0.975. In the case of GGCCGGCAUGGUCCCAGCCUCCUCGCUGGCGCCGGCUGGGCAACAUACCGAUGGGACCGUCCCCUCGGUAAUGGCGAAUGGGACCCA, the self-cleavage is reported as 0.845. In the case of GGCCGGCAUGGUCCCAGCCUCCUCGCUGGCGCCGGCUGGGCAACAUCCCGAGGGGACCGUCCCCUCGGUACUGGCGAAUGGGACCCA, the self-cleavage is reported as 0.883. GGCCGGCAUGGUCCCAGCCUCCUCGCUGGCGCCGGCUGGGCAACAUACCGAGGGGACCGUGCCCUCGGUAAUGGCGAAUGGGACCCA showed a self-cleavage of 0.639. For GGCCGGCAUGGUCCCAGCCUCCUCGCUGGCGCCGGCUGGGCAACAUACCGAGGGGACCGUCCCCUCGGUAAUGGCCAAUGGGACCCA, the self-cleavage was 0.812. For GGCCGGCAUGGUCCCAGCCUCCUCGCUGGCGCCGGCUGGGCAACAUCCCGAGGGGACCGUCCCCUCGGUAAUGGCGAAUGGGACCCA, the self-cleavage was 0.906. With GGCCGGCAUGGUCCCAGCCUCCUCGCUGGCGCCGGCUGGGCAACAUACCGAGGGGACCGUCCCCUCGGUUAUGGCGAAUGGGACCCA the self-cleavage was 0.697. With GGCCGGCAUGGUCCCAGCCUCCUCGCUGGCGCCGGCUGGGCAACAUACCGAGGGGACCGUCCCCUCGGUCAUGGCGAAUGGGACCCA the self-cleavage was 0.957. GGCCGGCAUGGUCCCAGCCUCCUCGCUGGCGCCGGCUGGGCAACAUACCGAGGGGACCGUCCCCUCGGUGAUGGCGAAUGGGACCCA gave a self-cleavage of 0.831. Work on GGCCGGCAUGGUCCCAGCCUCCUCGCUGGCGCCGGCUGGGCAACAUACCGAGGGGAACGUCCCCUCGGUAAUGGCGAAUGGGACCCA yielded a self-cleavage of 1.02. With GGCCGGCAUGGUCCCAGCCUCCUCGCUGGCGCCGGCUGGGCAACAUACCGAGGGGACCGUCCCCUCGGUAAUAGCGAAUGGGACCCA the self-cleavage was 0.447. GGCCGGCAUGGUCCCAGCCUCCUCGCUGGCGCCGGCUGGGCAACAUACCGAGGGGACCGUCCCCUCGGUAAUUGCGAAUGGGACCCA gave a self-cleavage of 0.142. For GGCCGGCAUGGUCCCAGCCUCCUCGCUGGCGCCGGCUGGGCAACAUACCGAGGGGACCGUCCCCUCGGUAAUCGCGAAUGGGACCCA, the self-cleavage was 0.665. For GGCCGGCAUGGUCCCAGCCUCCUCGCUGGCGCCGGCUGGGCAACAUACGGAGGGGACCGUCCCCUCGGUAAUGGCGAAUGGGACCCA, the self-cleavage was 1.42. In the case of GGCCGGCAUGGUCCCAGCCUCCUCGCUGGCGCCGGCUGGGCAACAUACCGAGGGGACCGUCCCCUCGGUAAUGGCGAAUGGGAACCA, the self-cleavage is reported as 0.808.
